Laboratory results from patent US7799901B2, “Modulators of the function of FAS receptors and other proteins” (Yeda Research and Development Co. Ltd., priority 1995, dated 2010).
Entries after “also recorded” stand apart in the source; their conditions may differ.

How the values were obtained:
[1] = test system: breast carcinoma MCF7 cells; assay: Cell death on overexpression of MACH isoforms in MCF7 cells; assay type: cell-based, human; conditions: β-galactosidase-expressing cells with apoptopic morphology, 20 h after transfection
Experimental: (§1) To explore the involvement of MACH in cell-death induction, the effect of overexpression of various MACH isoforms on cell viability was examined. The test was performed by transfecting MACH expression vectors together with a β-galactosidase expression vector as a transfection marker into human embryonic kidney 293-EBNA cells and breast carcinoma MCF7 cells.
(§2) In brief, 293-EBNA cells, MCF7 human breast carcinoma cells and HeLa HtTA-1 cells were grown in Dulbecco's modified Eagle's minimal essential medium supplemented with 10% fetal calf serum, nonessential amino acids, 100 U/ml penicillin and 100 μg/ml streptomycin. Cell tissue culture dishes (5×10^5 293-EBNA cells, 3×10^5 s MCF7 cells or 3×10^5 HeLa cells in 6-cm dishes) were transiently transfected, using the calcium phosphate precipitation method, with the cDNAs of the indicated proteins together with the β-galactosidase expression vector. In the experiments presented in FIGS. 14A-D and 15, each dish was transfected with 3.5 μg of the indicated MACH construct and 1.5 μg of pSV-β-gal. In the experiments presented in FIGS. 16A-D and 17-19, each dish was transfected with 2.5 μg of the indicated MACH or MORT1 construct (or, as control, empty vector) and 1.5 μg of pSV-β-gal. The cells were rinsed 6 to 10 h after transfection. The 293-EBNA and MCF7 cells were incubated for a further 18 h without additional treatment. The HeLa cells were incubated for 26 h after transfection and-then for 5 h in the presence of either anti-Fas.APO1 antibody (CH11, 0.5 μg/ml) or TNF (100 ng/ml), together with cycloheximide (10 μg/ml). The extent of cell death at the end of the incubation periods was assessed by determination of β-galactosidase expression, as described by Kumar et al, 1994.
(§3) In particular, FIGS. 14A-D show the morphology of human embryonic kidney 293-EBNA cells transiently expressing the indicated MACH isoforms. The arrows (FIG. 14B) point to apoptopic cells. Photographs were taken 26 h after transfection. […] Data are from three independent experiments with the 293-EBNA cells and two independent experiments with the MCF7 cells.

[2] = test system: TNF-induced death of HeLa cells; assay: Death of HeLa cells induced by TNF and cycloheximide; assay type: cell-based, human; conditions: TNF 100 ng/ml, cycloheximide 10 μg/ml
Experimental: as §2, with “1994. […]” for “1994.”

[3] = test system: p55-R-induced cytotoxicity in 293-EBNA cells; assay: Death of 293-EBNA cells induced by over-expression of p55-R; assay type: cell-based, human; conditions: co-transfection
Experimental: as §2, with “The HeLa cells were incubated for 26 h after transfection and-then for 5 h in the presence of either anti-Fas.APO1 antibody (CH11, 0.5 μg/ml) or TNF (100 ng/ml), together with cycloheximide (10 μg/ml).” left out, “1994. […]” for “1994.”
(§4) In particular, FIGS. 16A-D show morphology of 293-EBNA cells in which cell death was induced by transient expression of a chimera comprised of the extracellular domain of the p55-R (amino acids 1-168) fused to the transmembrane and intracellular domains of Fas/APO1 (amino acids 153-319) (p55-Fas chimera) (FIGS. 16A and 16B), or by expression of the p55-R (FIGS. 16C and 16D), and of cells that were protected from these cytotoxic effects by their simultaneous transfection with MACHα1 (C360S) (FIGS. 16B and 16D). […] FIG. 17 illustrates the quantification of death induced in 293-EBNA cells by their transfection with p55-Fas chimera or with p55-R, together with an empty vector, a MORT1 deletion mutant lacking the MACH-binding region (MORT1 (92-208)), or MACHα molecules containing a nonfunctional CED3/ICE region. […] Data are from at least two independent experiments and are expressed as in FIGS. 14A-F and 15.

[4] = test system: Fas/APO1 cytotoxicity (p55-Fas chimera) in 293-EBNA cells; assay type: cell-based, human; conditions: co-transfection
Experimental: as §2, with “The HeLa cells were incubated for 26 h after transfection and-then for 5 h in the presence of either anti-Fas.APO1 antibody (CH11, 0.5 μg/ml) or TNF (100 ng/ml), together with cycloheximide (10 μg/ml).” left out, “1994. […]” for “1994.”
as §4

[5] = test system: human embryonic kidney 293-EBNA cells; assay: Cell death on overexpression of MACH isoforms in 293-EBNA cells; assay type: cell-based; conditions: β-galactosidase-expressing cells with apoptopic morphology, 20 h after transfection
Experimental: as §1, §2, §3

HeLa cells = assay: Cell death on overexpression of MACH isoforms in HeLa cells; assay type: cell-based; conditions: FIG. 19
Experimental: as §2
To examine the involvement of the CED3/ICE homology region within the MACHα isoforms in their apoptopic effects, cells were transfected with the expression vector for the MACHβ1 isoform, which lacks the CED3/ICE homology region, as well as with expression vectors for MACHα3, which lacks an N-terminal part of the region, and with expression vectors for MACHα1 (C360S) and for a C-terminally truncated mutant of MACHα1 (MACHα1 (1-415)), which lacks one of the residues believed to be critical for CED3/ICE protease function (corresponding to Ser347 in ICE). […]

[6] = test system: Fas/APO1-induced death of HeLa cells; assay: Death of HeLa cells expressing Fas/APO1 induced by anti-Fas/APO1 antibody and cycloheximide; assay type: cell-based, human; conditions: HeLa cells transiently expressing Fas/APO1; CH11 0.5 μg/ml, cycloheximide 10 μg/ml
Experimental: as §2
The HeLa cells were made responsive to Fas/APO1 by transient expression of this receptor. […] These protective effects indicate that MACHα is a necessary component of both the Fas/APO1- and the p55-R-induced signaling cascades for cell death.
In particular, FIGS. 16A-D show morphology of 293-EBNA cells in which cell death was induced by transient expression of a chimera comprised of the extracellular domain of the p55-R (amino acids 1-168) fused to the transmembrane and intracellular domains of Fas/APO1 (amino acids 153-319) (p55-Fas chimera) (FIGS. 16A and 16B), or by expression of the p55-R (FIGS. 16C and 16D), and of cells that were protected from these cytotoxic effects by their simultaneous transfection with MACHα1 (C360S) (FIGS. 16B and 16D). Photographs were taken 26 h after transfection. FIG. 17 illustrates the quantification of death induced in 293-EBNA cells by their transfection with p55-Fas chimera or with p55-R, together with an empty vector, a MORT1 deletion mutant lacking the MACH-binding region (MORT1 (92-208)), or MACHα molecules containing a nonfunctional CED3/ICE region. […] Data are from at least two independent experiments and are expressed as in FIGS. 14A-F and 15.

B1: MACHα3: MACH isoform, cDNA SEQ ID NO: 19, amino acid SEQ ID NO: 20; lacks an N-terminal part of the CED3/ICE region (protein)
chain: KCKLDDDMNLLDIFIEMEKRVILGEGKLDILKRVCAQINKSLLKIINDYEEFSKGALTTTFEELHFEIKPHDDCTVEQIYEILKIYQLMDHSNMDCFICCILSHGDKGIIYGTDGQEAPIYELTSQFTGLKCPSLAGKPKVFFIQACQGDNYQKGIPVETDSEEQPYLEMDLSSPQTRYIPDEADFLLGMATVNNCVSYRNPAEGTWYIQSLCQSLRERCPRGDDILTILTEVNYEVSNKDDKKNMGKQMPQPTFTLRKKLVFPSD
[1]
  cell death of transfected MCF7 cells: No death
[2]
  protection against death induced by TNF and cycloheximide: effective protection
[3]
  protection against p55-R-induced cytotoxicity: effective protection
[4]
  protection against Fas/APO1 cytotoxicity (p55-Fas chimera): effective protection
[5]
  cell death of transfected 293-EBNA cells: No death
HeLa cells
  cytotoxicity in transfected HeLa cells: somewhat cytotoxic
[6]
  protection against death induced by anti-Fas/APO1 antibody and cycloheximide: effective protection; also recorded: prevention
